In publication PMC9482650, “Quantitative fragmentomics allow affinity mapping of interactomes” (Nature Communications, 2022):

Assays:
Assay in all cases: holdup assay
Parameters in all cases: key: below the threshold = too weak to quantify, mostly under pKd 3.1 to 4
Conditions in all cases: plain residues with an end cap or a label only (N-terminal biotin on a linker: gsgsgs; C-terminal amide)
APBA3_1, O96018 = biological target: T1, APBA3_1, O96018
T1 sequence (O96018 389-490, limits assumed, looked up): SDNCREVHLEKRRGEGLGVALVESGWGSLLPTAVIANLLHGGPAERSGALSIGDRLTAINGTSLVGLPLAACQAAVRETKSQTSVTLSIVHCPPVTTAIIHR

DFNB31_1, Q9P202 = biological target: T2, DFNB31_1, Q9P202
T2 sequence (Q9P202 135-233, limits assumed, looked up): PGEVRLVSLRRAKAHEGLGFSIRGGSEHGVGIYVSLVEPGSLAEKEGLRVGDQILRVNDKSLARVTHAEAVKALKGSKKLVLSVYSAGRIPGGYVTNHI

DFNB31_3, Q9P202 = biological target: T3, DFNB31_3, Q9P202
T3 sequence (Q9P202 811-907, limits assumed, looked up): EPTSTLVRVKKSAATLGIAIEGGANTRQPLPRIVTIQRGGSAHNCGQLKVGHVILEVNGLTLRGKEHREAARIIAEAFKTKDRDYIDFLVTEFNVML

DLG3_2, Q92796 = biological target: T4, DLG3_2, Q92796
T4 sequence (Q92796 221-321, limits assumed, looked up): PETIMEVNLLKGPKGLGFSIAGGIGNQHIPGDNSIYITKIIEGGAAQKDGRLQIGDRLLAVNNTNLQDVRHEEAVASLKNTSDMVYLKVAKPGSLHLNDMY

DLG5_1, Q8TDM6 = biological target: DLG5_1, Q8TDM6
FRMPD3, Q5JV73 = biological target: FRMPD3, Q5JV73
GORASP2, Q9H8Y8 = biological target: GORASP2, Q9H8Y8
GRASP, Q7Z6J2 = biological target: GRASP, Q7Z6J2
GRID2IP_2, A4D2P6 = biological target: GRID2IP_2, A4D2P6
GRIP1_4, Q9Y3R0 = biological target: T5, GRIP1_4, Q9Y3R0
T5 sequence (Q9Y3R0 467-571, limits assumed, looked up): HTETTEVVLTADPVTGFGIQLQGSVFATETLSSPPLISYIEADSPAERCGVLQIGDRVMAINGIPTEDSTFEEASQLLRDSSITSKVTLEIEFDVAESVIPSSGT

GRIP2_4, Q9C0E4 = biological target: GRIP2_4, Q9C0E4
GRIP2_6, Q9C0E4 = biological target: GRIP2_6, Q9C0E4
HTRA3, P83110 = biological target: T6, HTRA3, P83110
T6 sequence (P83110 354-453, limits assumed, looked up): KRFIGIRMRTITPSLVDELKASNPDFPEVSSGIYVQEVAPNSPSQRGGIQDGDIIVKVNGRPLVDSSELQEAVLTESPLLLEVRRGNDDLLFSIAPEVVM

IL16_3, Q14005 = biological target: IL16_3, Q14005
IL16_4, Q14005 = biological target: IL16_4, Q14005
Inadl_9, Q8NI35 = biological target: Inadl_9, Q8NI35
LNX1_2, Q8TBB1 = biological target: LNX1_2, Q8TBB1
MAGI2_2, Q86UL8 = biological target: MAGI2_2, Q86UL8
MPDZ_12, O75970 = biological target: T7, MPDZ_12, O75970
T7 sequence (O75970 1857-1958, limits assumed, looked up): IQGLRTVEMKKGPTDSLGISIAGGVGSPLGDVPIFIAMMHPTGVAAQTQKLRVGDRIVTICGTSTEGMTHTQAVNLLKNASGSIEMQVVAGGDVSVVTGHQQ

MPP2, Q14168 = biological target: T8, MPP2, Q14168
T8 sequence (Q14168 180-250, limits assumed, looked up): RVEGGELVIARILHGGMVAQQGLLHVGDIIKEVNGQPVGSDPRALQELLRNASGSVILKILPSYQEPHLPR

NOS1, P29475 = biological target: NOS1, P29475
PDZRN3_1, Q9UPQ7 = biological target: T9, PDZRN3_1, Q9UPQ7
T9 sequence (Q9UPQ7 244-349, limits assumed, looked up): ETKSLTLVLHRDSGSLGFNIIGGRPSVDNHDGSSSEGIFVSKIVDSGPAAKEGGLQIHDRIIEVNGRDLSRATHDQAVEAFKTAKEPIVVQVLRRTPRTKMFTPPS

PICK1, Q9NRD5 = biological target: PICK1, Q9NRD5
RADIL, Q96JH8 = biological target: T10, RADIL, Q96JH8
T10 sequence (Q96JH8 971-1071, limits assumed, looked up): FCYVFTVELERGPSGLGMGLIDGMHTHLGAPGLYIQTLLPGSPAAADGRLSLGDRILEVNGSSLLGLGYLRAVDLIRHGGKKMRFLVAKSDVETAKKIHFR

TIAM2, Q8IVF5 = biological target: T11, TIAM2, Q8IVF5
T11 sequence (Q8IVF5 885-986, limits assumed, looked up): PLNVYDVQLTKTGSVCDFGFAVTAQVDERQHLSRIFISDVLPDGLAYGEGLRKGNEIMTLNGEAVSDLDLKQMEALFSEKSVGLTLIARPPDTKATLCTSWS

TJP1_3, Q07157 = biological target: TJP1_3, Q07157
Sequence of TJP1_3, Q07157 (Q07157 416-512): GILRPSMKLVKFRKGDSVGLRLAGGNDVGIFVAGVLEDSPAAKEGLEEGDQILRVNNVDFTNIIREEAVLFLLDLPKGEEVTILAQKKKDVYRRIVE

Sequence of FRMPD3, Q5JV73 (Q5JV73 12-100): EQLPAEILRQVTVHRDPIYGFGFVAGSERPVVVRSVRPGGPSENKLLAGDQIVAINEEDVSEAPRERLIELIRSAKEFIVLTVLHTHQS
Sequence of NOS1, P29475 (P29475 9-101): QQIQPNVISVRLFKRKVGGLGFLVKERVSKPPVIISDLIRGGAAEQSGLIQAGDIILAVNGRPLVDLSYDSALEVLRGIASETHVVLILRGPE
Sequence of PICK1, Q9NRD5 (Q9NRD5 17-115): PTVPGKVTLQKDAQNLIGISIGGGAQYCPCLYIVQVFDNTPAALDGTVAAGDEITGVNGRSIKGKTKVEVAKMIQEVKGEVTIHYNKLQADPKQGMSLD
Sequence of GRIP2_6, Q9C0E4 (Q9C0E4 648-740): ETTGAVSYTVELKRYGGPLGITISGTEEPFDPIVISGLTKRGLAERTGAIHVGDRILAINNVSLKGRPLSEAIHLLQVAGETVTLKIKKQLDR
Sequence of LNX1_2, Q8TBB1 (Q8TBB1 371-470): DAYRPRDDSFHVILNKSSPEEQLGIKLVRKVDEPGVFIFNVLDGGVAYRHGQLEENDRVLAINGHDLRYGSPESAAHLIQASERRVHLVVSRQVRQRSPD
Sequence of DLG5_1, Q8TDM6 (Q8TDM6 617-713): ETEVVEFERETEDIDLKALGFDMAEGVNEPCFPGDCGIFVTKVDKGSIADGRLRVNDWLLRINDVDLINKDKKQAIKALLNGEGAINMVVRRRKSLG
Sequence of MAGI2_2, Q86UL8 (Q86UL8 410-522): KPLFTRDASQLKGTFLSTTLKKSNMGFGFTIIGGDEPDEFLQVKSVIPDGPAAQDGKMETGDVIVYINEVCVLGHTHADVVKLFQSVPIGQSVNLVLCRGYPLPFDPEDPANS
Sequence of IL16_4, Q14005 (Q14005 1229-1329): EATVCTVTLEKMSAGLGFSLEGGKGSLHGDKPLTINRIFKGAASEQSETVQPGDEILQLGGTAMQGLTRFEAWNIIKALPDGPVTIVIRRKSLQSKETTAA
Sequence of Inadl_9, Q8NI35 (Q8NI35 1530-1615): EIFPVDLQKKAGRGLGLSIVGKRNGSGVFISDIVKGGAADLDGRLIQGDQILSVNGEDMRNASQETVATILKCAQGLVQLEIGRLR
Sequence of GRID2IP_2, A4D2P6 (A4D2P6 272-370): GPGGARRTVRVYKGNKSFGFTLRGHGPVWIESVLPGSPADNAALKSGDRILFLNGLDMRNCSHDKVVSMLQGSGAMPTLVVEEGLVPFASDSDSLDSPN
Sequence of GRIP2_4, Q9C0E4 (Q9C0E4 446-548): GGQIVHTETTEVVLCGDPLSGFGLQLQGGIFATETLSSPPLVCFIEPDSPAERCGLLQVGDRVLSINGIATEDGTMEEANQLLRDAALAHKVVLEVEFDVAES
Sequence of IL16_3, Q14005 (Q14005 1107-1207): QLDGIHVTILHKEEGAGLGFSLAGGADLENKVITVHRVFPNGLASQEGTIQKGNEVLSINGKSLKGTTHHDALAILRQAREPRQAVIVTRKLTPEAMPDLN
Sequence of GRASP, Q7Z6J2 (Q7Z6J2 96-193): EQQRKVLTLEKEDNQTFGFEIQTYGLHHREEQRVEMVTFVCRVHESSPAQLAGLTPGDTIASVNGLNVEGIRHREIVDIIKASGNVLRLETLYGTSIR

## VSVDDVRSTSQGLSSY [DFNB31_int, Q9P202]
APBA3_1, O96018
  pKd: below the threshold
DFNB31_1, Q9P202
  pKd: below the threshold
DFNB31_3, Q9P202
  pKd: 4.02
DLG3_2, Q92796
  pKd: 4.12
DLG5_1, Q8TDM6
  pKd: below the threshold
FRMPD3, Q5JV73
  pKd: below the threshold
GORASP2, Q9H8Y8
  pKd: below the threshold
GRASP, Q7Z6J2
  pKd: below the threshold
GRID2IP_2, A4D2P6
  pKd: below the threshold
GRIP1_4, Q9Y3R0
  pKd: below the threshold
GRIP2_4, Q9C0E4
  pKd: below the threshold
GRIP2_6, Q9C0E4
  pKd: below the threshold
HTRA3, P83110
  pKd: below the threshold
IL16_3, Q14005
  pKd: below the threshold
IL16_4, Q14005
  pKd: below the threshold
Inadl_9, Q8NI35
  pKd: below the threshold
LNX1_2, Q8TBB1
  pKd: below the threshold
MAGI2_2, Q86UL8
  pKd: below the threshold
MPDZ_12, O75970
  pKd: below the threshold
MPP2, Q14168
  pKd: below the threshold
NOS1, P29475
  pKd: below the threshold
PDZRN3_1, Q9UPQ7
  pKd: below the threshold
PICK1, Q9NRD5
  pKd: below the threshold
RADIL, Q96JH8
  pKd: below the threshold
TIAM2, Q8IVF5
  pKd: 3.85
TJP1_3, Q07157
  pKd: below the threshold
